Results on one molecule are retold here after patent publication US20110142849A1 (IRM, published 2011).

The assay addresses T1, recombinant human Pcsk9 (aa 31-692) with C-terminal his6 tag (human, UniProt Q8NBP7 31-692).
T1 construct: In the TR-FRET assay it carried a fluorophore (hPcsk9-AF); also called hPCSK9; hPcsk9
Nature of the assay: TR-FRET, disruption of hLDL-R-Eu and hPcsk9-AF. Here is the method: The TR-FRET assay was performed in 384-well white, shallow plates (Perkin Elmer, 6008280). hPcsk9-AF (10.7 nM) was incubated with serial dilutions of unlabeled hPcsk9 protein, EGF-A peptide, or NVP-LFU720-AX-1 antibody for 30 minutes at room temperature in 15 μL of assay buffer (20 mM HEPES, pH 7.2, 150 mM NaCl, 1 mM CaCl₂, 0.1% v/v Tween 20, and 0.1% w/v BSA). This was followed by addition of 5 μL of hLDL-R-Eu (4 nM) in assay buffer to the hPcsk9 and NVP-LFU720-AX-1 preincubated complex, and incubation at room temperature for 90 minutes. The final concentrations of these labeled proteins were 8 nM of hPcsk9-AF and 1 nM of hLDL-R-Eu. The TR-FRET signal was measured with EnVision 2100 multilabel reader (Perkin Elmer) at 330 nm excitation and 665 nm emission. Data was converted to normalized values using the following formula: [(665 nm value×10,000)/(615 nm value)]. The percentage inhibition was calculated with the following formula: 100-[(normalized value of treated sample/averaged normalized value of untreated samples)×100]. The percentage inhibition dose response curves were plotted using Prism version 5 with the formula, Y=Bottom+(Top−Bottom)/(1+10̂((LogIC₅₀−X)*HillSlope)) (GraphPad Prism Software).
TR-FRET assay was used for determining if the anti-hPcsk9 antibody NVP-LFU720 could disrupt the interaction between hPcsk9-AF and hLDL-R-Eu labeled proteins. […]

B1: NVP-LFU720 (antibody, V domains shown)
VH: EVQLQQSGAELMKPGASVKLSCTASGFNIKDMYMSWVRQRPEQGLEWIGRIDPANGHTNYDPKFQAKATITTDTSSKTAYLHLSSLTSEDTAVYYCARSYYYYAMDYWGQGTSVTVSS
VL: QIVLTQSPAIMSASPGEKVTMTCSASSSVSYMHWYQQKPGSSPRLWIYLTFNLASGVPARFSGSGSGTSYSLSISSMEAEDAATYYCLQWSSDPPTFGSGTKLEIK
notes: Murine anti-human Pcsk9 IgG1-kappa monoclonal antibody from a hybridoma; also called 5P20; NVP-LFU720-AX-1
Consider B1, for which the IC50 (as a rule, the concentration at which inhibition is half-maximal) was greater than 1 µM.
